Experimental findings from the supplement of paper PMC9170038 are described below.

This series has as its system MS2 coat protein. The experiment in a line: apparent KD of MS2 coat protein; higher = weaker reporter binding. The following applies: Eterna round: R107. The method, then: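 RNA-MaP round R107: designed RNA switches with theophylline, tryptophan, arginine or FMN aptamers are transcribed on-chip within common flanks. They are titrated with SNAP-549-labelled MS2 coat protein in RNA-MaP buffer (100 mM Tris pH 7.5, 80 mM KCl, 4 mM MgCl2), without ligand or with the indicated ligand. Median apparent KD per design.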

The mark [1] stands for this setting: input ligand: theophylline 20 uM.
Setting [2] is: input ligand: theophylline 2 mM.
[3] abbreviates: input ligand: tryptophan 2.4 mM.

“AACAUGAGGAUCACCCAUGUCUGAACUGAAGGAGCGCUAAACAAGGCAGGUAGGUCGCGGAAUUUUGUGUGCAUAUGCAUAUGGG [9.J]”: the “apparent KD of MS2 coat protein” value (input ligand: arginine 13.2 mM) was determined as 22.8 nM; the “apparent KD of MS2 coat protein” value (input ligand: none) was 24.4 nM; the “apparent KD of MS2 coat protein” value under setting [1] came out at 35.3 nM; the “apparent KD of MS2 coat protein” value under setting [2] worked out at 29.6 nM; the “apparent KD of MS2 coat protein” value under setting [3] stood at 24.7 nM.

In the case of “AACCACAUGAGGAUCACCCAUGUGACCGCUCGAGGACCGGUACGGCCGCCACUCGUGGAGGGACUUAUGCGUUAUCCGGGUAAAU [theeternabot_sameState_MS2_Trp_A_29]”, the “apparent KD of MS2 coat protein” value (input ligand: arginine 13.2 mM) was found to be 16.9 nM, the “apparent KD of MS2 coat protein” value under setting [1] stood at 27 nM and the “apparent KD of MS2 coat protein” value under setting [2] was 20.9 nM.

In the case of “AAGACGGUCGGAAGGAGCGGUACAUGAGGAUCACCCAUGUACCUCUGGGCAUCCGUAGUGUGCCAGGUAGGUCGCCGAUUGCGGG [Esorbevege]”, the “apparent KD of MS2 coat protein” value was found to be 12.7 nM (input ligand: arginine 13.2 mM); 11.7 nM (input ligand: none); 23.3 nM under setting [1]; 13.5 nM under setting [2]; 12.1 nM under setting [3].

As to “AAGGUGAUCCCAGAUACCAGCUCAACAUGAGGAUCACCCAUGUACGGGACGAAAGUCCCGGGCCCUUGGCAGCUGGGUUGCCAAG [SSTheo B #19]”, the “apparent KD of MS2 coat protein” value by setting is: (input ligand: arginine 13.2 mM) 42.2 nM; under setting [1], 299 nM; under setting [3], 185 nM.

For the sequence “AAUAACAUGAGGAUCACCCAUGUAAAAGAUACCAGAGUGAUGAUCCUCCCUUGGCAGCUUAACGCUGAUUGAUUACAAUCAGCGA [TheoAS 3 #Tail #MS2BeforeAptamer #BothOrNeither]”, the “apparent KD of MS2 coat protein” value reads like this: (input ligand: arginine 13.2 mM) 46.4 nM; under setting [1], 128 nM; under setting [3], 67.1 nM.

For “AAUAAUAAGGCGGCCGCCACUAAACAUGAGGAUCACCCAUGUCUCGAGCGCUUGCGUUUGGGAAGUAGGACCGGGCCAAUAAUAA [Exclusion - Tryptophan B (Freestyle 5)]”, the “apparent KD of MS2 coat protein” value was 14.2 nM (input ligand: arginine 13.2 mM); 14.5 nM (input ligand: none); 16.4 nM under setting [1]; 18.1 nM under setting [2]; 14.2 nM under setting [3].

As to “AAUAAUAGGUGAUCCUGACGAGUGGCAUAACGAGGACCGGUACGGCCGCCACUCGAACAUGAGGAUCACCCAUGUAGCCACUCGA [M'-T'-T-MS2-T'' - Design 5.b]”, the “apparent KD of MS2 coat protein” value came to 32 nM (input ligand: arginine 13.2 mM), 327 nM under setting [1] and 685 nM under setting [2].

Consider “AAUAAUAGGUGAUCUUGUGUCGUACCGUAACGAGGACCGGUACGGCCGCCACUCGAACAUGAGGAUCACCCAUGUAUGUAUGAUA [whbob_SS_trypto A_f7]”, for which the “apparent KD of MS2 coat protein” value amounted to 57.8 nM (input ligand: arginine 13.2 mM), 301 nM under setting [1] and 497 nM under setting [2].

For the sequence “AAUCAUAACUGAAGGAGCGUCUAUAUUACAUGAGGAUCACCCAUGUUUAUAUGGUAUUAUAGACAGGUAGGUCGCAGAUUUUUUA [JR_SSArginiB_Sub017]”, the “apparent KD of MS2 coat protein” value (input ligand: arginine 13.2 mM) was 20.7 nM; the “apparent KD of MS2 coat protein” value (input ligand: none) is 16.8 nM; the “apparent KD of MS2 coat protein” value under setting [1] is 21.6 nM; the “apparent KD of MS2 coat protein” value under setting [2] worked out at 18.7 nM; the “apparent KD of MS2 coat protein” value under setting [3] came out at 15.8 nM.

For “AAUCGUAAGGCGGCCGCCACUACACAUGAGGAUCACCCAUGUCUCGCGGGCUUGCGUUGGGAUAGUAGGACCGGGCCAGUAAUAA [Exclusion - Tryptophan B (Freestyle 13)]”, the “apparent KD of MS2 coat protein” value is 17.1 nM (input ligand: arginine 13.2 mM); 26.2 nM (input ligand: none); 33.7 nM under setting [1]; 28.3 nM under setting [2]; 25.1 nM under setting [3].

“AAUGGCCGUACCGGAAGGGUGAUCCUCAAACGAGGACCGGUACGGCCGCCACUCGAUAACAUGAGGAUCACCCAUGUAAUACAUA [whbob_X-Trypto_V2.0]”: the “apparent KD of MS2 coat protein” value is, setting by setting: (input ligand: arginine 13.2 mM) 96.4 nM; under setting [1], 405 nM; under setting [2], 699 nM.

For “AAUUACAUGAGGAUCACCCAUGUGGCACAACGAGGACCGGUACGGCCGCCACUCGGUGCUGUACCACAAAACAUGCACGGGAAAG [theeternabot_sameState_MS2_Trp_A_6]”, the “apparent KD of MS2 coat protein” value worked out at 33.1 nM (input ligand: arginine 13.2 mM); 31.6 nM (input ligand: none); 81.4 nM under setting [1]; 39 nM under setting [2]; 30.9 nM under setting [3].

As for “ACAUGAGGAUCACCCAUGUAAUUGCCGGAAGGAGCGUCAUUAAGGACAGGUAGGUCGCUGGUAGGGUCGUCGGUUACGGCGGCCA [SSArg A #10]”, the “apparent KD of MS2 coat protein” value is 13.3 nM (input ligand: arginine 13.2 mM); 11.1 nM (input ligand: none); 16.8 nM under setting [1]; 13 nM under setting [2]; 13.7 nM under setting [3].

For “ACAUGAGGAUCACCCAUGUACAUAAGGGAAGGAGCGCGGUGAAACGCAGGUAGGUCGCCCAUAAUAUCUAACAUUAAAUUCAUGU [LeftA3]”, the “apparent KD of MS2 coat protein” value worked out at 16.8 nM (input ligand: arginine 13.2 mM); 16.6 nM (input ligand: none); 27.9 nM under setting [1]; 20 nM under setting [2]; 18.8 nM under setting [3].

Consider “ACAUGAGGAUCACCCAUGUAGCCUAGGGAAGGAGCGGCGUAAGAGCCAGGUAGGUCGCCCGCAUGAGGAUCACCCAUGUCGAGGG [Same State Arginine A GF10]”, for which the “apparent KD of MS2 coat protein” value (input ligand: arginine 13.2 mM) came to 30.9 nM; the “apparent KD of MS2 coat protein” value (input ligand: none) turned out to be 38 nM; the “apparent KD of MS2 coat protein” value under setting [1] was 40.9 nM; the “apparent KD of MS2 coat protein” value under setting [2] was 33.1 nM; the “apparent KD of MS2 coat protein” value under setting [3] was found to be 29.3 nM.

Turning to “ACAUGAGGAUCACCCAUGUAGCCUAGGGAAGGAGCGUCGUAAGAGACAGGUAGGUCGCCCGCAUGUGGAUCACCCAUGUCGAGGG [SSArg A #11]”, the “apparent KD of MS2 coat protein” value reads like this: (input ligand: arginine 13.2 mM) 27.4 nM; (input ligand: none) 37.5 nM; under setting [1], 48.3 nM; under setting [2], 43.6 nM; under setting [3], 38.7 nM.

As to “ACAUGAGGAUCACCCAUGUAGUGGCACGAUACCAGCUGAUCCCGUGGCCCUUGGCAGCGUCCGGUGUGGUGCGCCGGGAUGGAGC [ZSZMULLIN]”, the “apparent KD of MS2 coat protein” value is, setting by setting: (input ligand: arginine 13.2 mM) 21.8 nM; (input ligand: none) 28.4 nM; under setting [1], 50.8 nM; under setting [2], 40.7 nM; under setting [3], 35.6 nM.

“ACAUGAGGAUCACCCAUGUCACUCGUGUUCCGAGGACCGGUACGGCCGCCACUCGGUCCUCGCGAGGAUGGUCAAAGACUAUCCA [Omei Trp A SS B v2]”: the “apparent KD of MS2 coat protein” value was 37.1 nM (input ligand: arginine 13.2 mM); 75.2 nM (input ligand: none); 66.8 nM under setting [1]; 71.4 nM under setting [2]; 48.6 nM under setting [3].

For the sequence “ACAUGAGGAUCACCCAUGUGAUGGCGCGAUACCAGCUGAUCCCGUGGCCCUUGGCAGCGUCCGGUGUGGUCCGGCGGGUGGGACG [khkmullin]”, the “apparent KD of MS2 coat protein” value runs as follows: (input ligand: arginine 13.2 mM) 91.4 nM; (input ligand: none) 20.8 nM; under setting [1], 31.7 nM; under setting [2], 31 nM; under setting [3], 24.2 nM.

Take “ACAUGAGGAUCACCCAUGUGGCGACUUGAUACCAGACCCGCACUAGUCCCUUGGCAGCAACUACGUGUGGGACACCCAUGUGAAG [aszkullin]”: the “apparent KD of MS2 coat protein” value by setting is: (input ligand: arginine 13.2 mM) 17.5 nM; under setting [1], 23.9 nM; under setting [3], 20.2 nM.

Take “ACAUGAGGAUCACCCAUGUGUGUAAAUCCUCGAGGACCGGUACGGCCGCCACUCGAUCGAGUGUAAGUUGAAUGUAACAUUCAAC [whbob_SS_trypto A_2s8]”: the “apparent KD of MS2 coat protein” value (input ligand: arginine 13.2 mM) was 42.6 nM, the “apparent KD of MS2 coat protein” value under setting [1] was determined as 118 nM and the “apparent KD of MS2 coat protein” value under setting [2] is 108 nM.

With “ACAUGAGGAUCACCCAUGUUCCUCAUUGAUACCAGUGAAUUUAGACGCCCUUGGCAGCGAGUUUUUUUAUAAGAUUUUUUUUUUU [6.I]”, the “apparent KD of MS2 coat protein” value stood at 239 nM (input ligand: arginine 13.2 mM), 839 nM under setting [1] and 916 nM under setting [3].

Regarding “ACAUGAGGAUCACCCAUGUUCCUCGCCGAUACCAGUGAAGAAGAACGCCCUUGGCAGCGGAAAGAAUAUUUUGGAGAUGAGAUAU [6.V]”, the “apparent KD of MS2 coat protein” value is 70.5 nM (input ligand: arginine 13.2 mM), 272 nM under setting [1] and 220 nM under setting [3].

As to “ACAUGAGGAUCACCCAUGUUUGAUGUUCCUCGAGGACCGGUACGGCCGCCACUCGAACGAGUGGCACGCGAGUGCGCACUCGCGU [aTa]”, the “apparent KD of MS2 coat protein” value reads like this: (input ligand: arginine 13.2 mM) 14.3 nM; (input ligand: none) 11.3 nM; under setting [1], 19.9 nM; under setting [2], 15.6 nM; under setting [3], 13.6 nM.

Consider “ACAUGAGGCUCACCCAUGUGUAGUGGGUGGCGAGGACCGGUACGGCCGCCACUCGGCAACAUGAGGAUCACCCAUGUAAGGCCCU [RNA Blob]”, for which the “apparent KD of MS2 coat protein” value is, setting by setting: (input ligand: arginine 13.2 mM) 39.6 nM; (input ligand: none) 133 nM; under setting [1], 134 nM; under setting [2], 148 nM; under setting [3], 35 nM.

In the case of “ACAUGAGGGAUGGAUACCAGCGACAUGAGGAUCACCCAUGUAUGAGGAUCACCCAUGUUAUGCCCUUGGCAGCCACAAACAUGAG [UUYMULLIN]”, the “apparent KD of MS2 coat protein” value (input ligand: arginine 13.2 mM) was found to be 24.8 nM; the “apparent KD of MS2 coat protein” value (input ligand: none) worked out at 14.3 nM; the “apparent KD of MS2 coat protein” value under setting [1] was found to be 20 nM; the “apparent KD of MS2 coat protein” value under setting [2] is 117 nM; the “apparent KD of MS2 coat protein” value under setting [3] worked out at 16.9 nM.

For the sequence “ACCCAUAAUUGGGCGGGUGGAUUGAGUGAUACCAGUCGUAUACAUGACCCUUGGCAGCACCGACAUGAGGAUCACCCAUGUGCCA [Same State Theophylline A GF23]”, the “apparent KD of MS2 coat protein” value (input ligand: arginine 13.2 mM) was found to be 25.9 nM, the “apparent KD of MS2 coat protein” value under setting [1] worked out at 38.4 nM and the “apparent KD of MS2 coat protein” value under setting [3] is 46 nM.

For the sequence “ACCCUAGCGAUCGCUCGCUAGGGUGCGGAUACCAGCGAGGUCCAUCGCCCUUGGCAGCCGAACAUGAGGAUCACCCAUGUCGGUA [#1 Same State - Theophylline A Attempt #19 (HarryS)]”, the “apparent KD of MS2 coat protein” value (input ligand: arginine 13.2 mM) came out at 10.1 nM, the “apparent KD of MS2 coat protein” value under setting [1] was 11.6 nM and the “apparent KD of MS2 coat protein” value under setting [3] was found to be 10.4 nM.
